{"source": "patent US8692070B2", "about": "“Plants with improved nitrogen utilization and stress tolerance” (Iowa Corn Promotion Board, priority 2009, dated 2014)", "molecules": {"B1": {"name": "NAGK: arginine-insensitive N-acetyl glutamate kinase (SEQ ID NO:2) from Brevibacillus laterosporus, 6-histidine tagged, E. coli protein extract (protein)", "chain": "MLHEVMVIKCGGSMLEQLPESFYNKLATLQAEGRSIVIVHGGGPAINQMLEQLKIEPTFSNGLRVTDEPTMQAVEMVLSGPINKLVVRKLLHAGGKAWGLSGVDGSLLQAVEKTQGLGLVGSITVVDQAPLQLLLSNGYIPVVSPIAVSEDGRTRYNCNADTVAGAIASALGAKQLLMLTDVPGIWAENELGEKQLLPTVTTEDIQLMMKNQIITGGMIPKVQAALDALAQGVQEVVICKGEAETLDGVVKGMAVGTSISAEMSRGQDSQAFISNKV", "modifications": "Zea mays"}}, "assay_type_in_all_cases": "biochemical, Brevibacillus laterosporus", "key": {"[1]": {"system": "NAGK enzyme", "assay": "NAGK enzyme assay, titration with arginine", "conditions": "NAGK 100 ng/mL; for A540 nm: 70 mM NAG, 30 minutes 37° C., no-arginine control 0.284", "protocol": "(§1) The NAGK enzyme assay was adapted from the method of Denes (1970). Product formation was quantified using a Spectramax 190 spectrophotometer at 540 nm.\nThe following master mix for NAGK in vitro enzyme assays was prepared for the purpose of determining the effect of arginine on NAGK enzyme activity: 50 mM Tris; final pH was 5.5;100 mM hydroxylamine (NH2OH); 10 mM MgCl2; 7 mM ATP; 70 mM NAG.\nThis master mix was subdivided into individual wells in a 96-well plate (200 uL/well final volume), and then varying concentrations of arginine (0.15 mM to 10 mM) were then added to individual wells. The enzyme reactions were then initiated by addition of NAGK enzyme (100 ng/mL). Following 30 minutes of incubation at 37° C., the absorbance of each sample was quantified. A control reaction without arginine was prepared an analyzed alongside."}, "[2]": {"system": "NAGK enzyme", "assay": "NAGK enzyme assay, titration with NAGK enzyme", "conditions": "70 mM NAG, 1 hour 37° C.; for A540 nm: buffer control (0.040) subtracted", "protocol": "NAGK overexpression vector pAX4389 was transformed into electrocompetent E. coli cells (BL21 *DE3, Invitrogen) and single colonies were obtained by selection on the antibiotic kanamycin. An individual colony was then grown in liquid medium (LB broth) until the culture absorbance (at 600 nm) reached 0.6, and then 0.5 mM IPTG was added to induce expression from the T7 promoter. Induction was carried out overnight at 16° C. The following day, the induced culture was centrifuged and the pellet was frozen for two hours at −20° C. After thawing on ice, the pellet was resuspended in […] of lysis buffer (50 mM Hepes, pH 7.0, 50 mM NaCl), treated with Lysozyme (Novagen) at room temperature for 30 minutes, and then sonicated to lyse the cells. Insoluble material was separated from the soluble protein extract through centrifugation. This protein extract was then stored in an ice bucket, and NAGK enzyme assays were prepared a short time later. As a negative control, a control vector was prepared alongside that directed the overexpression of a bacterial EPSPS enzyme in the same base vector (pRSF-1b). This vector was likewise transformed into the same E. coli cell line and a transformant colony was selected for protein overexpression and a protein extract was prepared alongside NAGK.\nas §1\nA master mix for the NAGK in vitro reaction was prepared with the following components: 50 mM Tris, pH 8.0; final pH of the master mix was 5.5; 100 mM hydroxylamine (NH2OH); 10 mM MgCl2; 7 mM ATP; 70 mM N-acetylglutamate (NAG).\nThis master mix was subdivided into individual wells in a 96-well plate (200 uL/well final volume), and reactions were then initiated by adding various concentrations of NAGK protein extract into individual sample wells. Following 1 hour of incubation at 37° C., the absorbance of each sample was quantified. The quantity of NAGK protein in the extract was estimated by loading dilutions of the extract on a SDS-polyacrylamide gel alongside known concentrations of a bovine serum albumin standard, and then staining the gel with Coomassie protein stain (Simply Blue, Invitrogen).\nBy this method, it was observed that addition of NAGK protein extract at concentrations as low as 1 ng/mL generated an absorbance product at 540 nm. The absorbance results from the enzyme product (N-actylglutamyl-5-phosphate) reacting with hydroxylamine to create the absorbent compound N-acetyglutamyl-5-hydroxamate. The graph (FIG. 1) and table (Table 3) show the absorbance at each of 6 different concentrations of NAGK protein. The baseline absorbance generated by a buffer control (A540=0.04) was subtracted from each NAGK absorbance value."}, "[3]": {"system": "NAGK enzyme", "assay": "NAGK enzyme assay, titration with substrate (NAG)", "conditions": "1000 ng/mL NAGK, 1 hour 37° C., no-substrate control (0.041) subtracted", "protocol": "as §1\nThe following master mix for NAGK in vitro enzyme assays was prepared for the purpose of titrating the substrate (NAG) into the reaction: 50 mM Tris; final pH was 5.5; 100 mM hydroxylamine (NH2OH); 10 mM MgCl2; 7 mM ATP; 1000 ng/mL NAGK enzyme (from protein extract).\nThis master mix was subdivided into individual wells in a 96-well plate (200 uL/well final volume), and reactions were then initiated by adding various concentrations of the substrate NAG into individual sample wells. The NAG concentrations ranged from 1.6 mM up to 100 mM. Following 1 hour of incubation at 37° C., the absorbance of each sample was quantified. A control reaction without substrate was prepared an analyzed alongside."}}, "data": [{"molecule": "N=C(N)NCCC[C@H](N)C(=O)O", "note": "[Arginine, arginine]", "values": [{"measurement": "A540 nm", "setting": "[1]; Arginine 0.16 mM", "result": 0.291}, {"measurement": "A540 nm", "setting": "[1]; Arginine 0.31 mM", "result": 0.259}, {"measurement": "A540 nm", "setting": "[1]; Arginine 0.63 mM", "result": 0.263}, {"measurement": "A540 nm", "setting": "[1]; Arginine 1.25 mM", "result": 0.237}, {"measurement": "A540 nm", "setting": "[1]; Arginine 2.5 mM", "result": 0.257}, {"measurement": "A540 nm", "setting": "[1]; Arginine 5 mM", "result": 0.266}, {"measurement": "A540 nm", "setting": "[1]; Arginine 10 mM", "result": 0.287}, {"measurement": "effect of arginine on product formation by the NAGK enzyme", "setting": "[1]; arginine 0.15 mM to 10 mM", "result": "insensitive"}]}, {"molecule": "B1", "values": [{"measurement": "lowest concentration of NAGK protein extract that generated an absorbance product at 540 nm", "setting": "[2]", "result": 1, "unit": "ng/mL"}, {"measurement": "A540 nm", "setting": "[2]; NAGK 1 ng/mL", "result": 0.001}, {"measurement": "A540 nm", "setting": "[2]; NAGK 3.9 ng/mL", "result": 0.002}, {"measurement": "A540 nm", "setting": "[2]; NAGK 15.6 ng/mL", "result": 0.039}, {"measurement": "A540 nm", "setting": "[2]; NAGK 62.5 ng/mL", "result": 0.0159}, {"measurement": "A540 nm", "setting": "[2]; NAGK 250 ng/mL", "result": 0.518}, {"measurement": "A540 nm", "setting": "[2]; NAGK 1000 ng/mL", "result": 0.872}, {"measurement": "A540 nm", "setting": "[3]; NAG 1.6 mM", "result": 0.07}, {"measurement": "A540 nm", "setting": "[3]; NAG 3.1 mM", "result": 0.13}, {"measurement": "A540 nm", "setting": "[3]; NAG 6.3 mM", "result": 0.0212}, {"measurement": "A540 nm", "setting": "[3]; NAG 12.5 mM", "result": 0.313}, {"measurement": "A540 nm", "setting": "[3]; NAG 25 mM", "result": 0.411}, {"measurement": "A540 nm", "setting": "[3]; NAG 50 mM", "result": 0.515}, {"measurement": "A540 nm", "setting": "[3]; NAG 100 mM", "result": 0.57}]}]}
